Assay results as given in patent US20090311267A1 (UNIVERSITY OF WURZBURG, published 2009).
Values joined by “and” are separate entries in the source; they are usually repeats but may differ in a detail not shown here. Identical values can stand only once.

Legend:
[1] = biological target: T1, (1-289) recombinant (r) GPIbα fragment expressed by Chinese hamster ovary cells (human, UniProt P07359 17-305); experiment: ELISA: inhibition of ristocetin (300 µg/ml)-induced binding of vWF to rGPIbα captured on 2D4
T1 construct: they seem to count on the mature chain, not on the precursor; Fragment obtained from Meyer et al; also called rGPIb-fragment; recombinant GPIbα fragment (His1-Val289)

[2] = biological target: human platelet glycoprotein GPIb (on human platelets) (human, UniProt P07359 17-652); experiment: cell-based or functional assay
[3] = biological target: T1, (1-289) recombinant (r) GPIbα fragment …; experiment: ELISA: inhibition of botrocetin (0.5 µg/ml)-induced binding of vWF to rGPIbα captured on 2D4

- IC50 [1]: 1.8 µg/mL and 36 nM
- IC50 of botrocetin-(0.5 µg/ml) induced human platelet agglutination [2]: 2 µg/ml and 40 nmol/L
- IC50 of ristocetin-(1 mg/ml) induced human platelet agglutination [2]: 1.2 µg/ml and 24 nmol/L
- IC50 [3]: 2.5 µg/mL and 50 nM
B1: 6B4 Fab fragments (Fab, V domains shown)
VH: QVQLQESGPGLVAPSQSLSITCTVSGISLNRYGVHWVRQPPGKGLEWLGVIWTGGSTNYNSALMSRLSISKDNSKSQVFLKMNSLQTDDTAMYYCARDRSTMITAYAMDYWGQGTTVTVSS
VL: DIELTQSPAIMSASPGEKVTMTCSASSSVNYMHWFQQESGTFPKRRIYDTSKLASGVPARLSGSGSGTEFTLEISRVKAEDVGVYYCQQLVEYPLTFGAGTKLELK
